These results are taken from publication PMC4186791, “The Intrinsically Disordered Regions of the Drosophila melanogaster Hox Protein Ultrabithorax Select Interacting Proteins Based on Partner Topology” (PLoS ONE, 2014).

A value given as a limit tells only on which side of the number the result lay.

The target of experiment [1] is T1, UbxIb N103 Pro4 (Drosophila melanogaster, UniProt P83949 1-389, amino acids 2–102 removed (N103) | A226P | Q233P).
T1 construct: Ultrabithorax (Ubx), Drosophila melanogaster, isoform Ib, from which amino acids 2–102 (Region 1) are removed, with the Pro4 mutations; Form is the full-length isoform Ib less the stated deletion; also called UbxIb N103 Pro4 (0, D2,0, D4, S5); source: yeast two-hybrid fusion (pLexA, S. cerevisiae EGY48)
Put plainly: two-hybrid; LexA-Ubx variant (pLexA) and B42-partner (pB42) co-transformed into S. cerevisiae EGY48 carrying p8op-LacZ; blue/white colonies on X-gal and liquid β-galactosidase (ONPG) assay after galactose induction at 30°C, reported in Miller units. The conditions noted are these: partners not purified.

The target in experiment [2] is T2, UbxIb Δ103–216 (Drosophila melanogaster, UniProt P83949 1-389, Δ103-216).
T2 construct: source: yeast two-hybrid fusion (pLexA, S. cerevisiae EGY48)
The description is as above. The conditions noted are these: partners not purified.

T2 sequence (P83949 other isoform, or with tags, fused parts or gaps Δ103-216 | Δ103-216 | mutant): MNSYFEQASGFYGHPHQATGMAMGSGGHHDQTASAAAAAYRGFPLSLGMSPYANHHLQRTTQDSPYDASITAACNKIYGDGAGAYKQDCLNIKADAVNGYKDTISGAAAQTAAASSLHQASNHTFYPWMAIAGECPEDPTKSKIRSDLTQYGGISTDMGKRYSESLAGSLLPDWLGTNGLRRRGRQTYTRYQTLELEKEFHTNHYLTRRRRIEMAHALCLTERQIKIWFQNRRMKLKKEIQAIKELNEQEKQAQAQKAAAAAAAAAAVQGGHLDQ
T1 sequence (P83949 other isoform, or with tags, fused parts or gaps with the stated changes): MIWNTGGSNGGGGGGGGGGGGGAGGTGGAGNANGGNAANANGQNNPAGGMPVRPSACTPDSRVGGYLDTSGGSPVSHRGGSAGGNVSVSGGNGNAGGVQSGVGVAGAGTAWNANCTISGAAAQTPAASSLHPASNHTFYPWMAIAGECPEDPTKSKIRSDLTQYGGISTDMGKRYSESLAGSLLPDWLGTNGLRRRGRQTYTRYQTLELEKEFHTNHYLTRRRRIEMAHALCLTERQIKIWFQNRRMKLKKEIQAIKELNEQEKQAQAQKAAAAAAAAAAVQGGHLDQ

B1: Dishevelled (natural protein, Drosophila melanogaster, UniProt P51140 1-623, looked up)
chain: MDADRGGGQETKVIYHIDDETTPYLVKIPIPSAQVTLRDFKLVLNKQNNNYKYFFKSMDADFGVVKEEIADDSTILPCFNGRVVSWLVSADGTNQSDNCSELPTSECELGMGLTNRKLQQQQQQHQQQQQQQQQQHQQQQQQQQQQVQPVQLAQQQQQQVLHHQKMMGNPLLQPPPLTYQSASVLSSDLDSTSLFGTESELTLDRDMTDYSSVQRLQVRKKPQRRKKRAPSMSRTSSYSSITDSTMSLNIITVSINMEAVNFLGISIVGQSNRGGDGGIYVGSIMKGGAVALDGRIEPGDMILQVNDVNFENMTNDEAVRVLREVVQKPGPIKLVVAKCWDPNPKGYFTIPRTEPVRPIDPGAWVAHTQALTSHDSIIADIAEPIKERLDQNNLEEIVKAMTKPDSGLEIRDRMWLKITIPNAFIGADAVNWVLENVEDVQDRREARRIVSAMLRSNYIKHTVNKLTFSEQCYYVVNEERNPNLLGRGHLHPHQLPHGHGGHALSHADTESITSDIGPLPNPPIYMPYSATYNPSHGYQPIQYGIAERHISSGSSSSDVLTSKDISASQSDITSVIHQANQLTIAAHGSNKSSGSSNRGGGGGGGGGGNNTNDQDVSVFNYVL
notes: Dishevelled (Dsh), Drosophila melanogaster; also called Dsh; source: yeast two-hybrid fusion (pB42, S. cerevisiae EGY48)
Consider B1, for which the “percent of reporter signal lost relative to UbxIb Pro4” value in experiment [1] and in experiment [2] was no less than 59% in each case.

B2: 14-3-3ε (natural protein, Drosophila melanogaster, UniProt P92177 1-262, looked up)
chain: MTERENNVYKAKLAEQAERYDEMVEAMKKVASMDVELTVEERNLLSVAYKNVIGARRASWRIITSIEQKEENKGAEEKLEMIKTYRGQVEKELRDICSDILNVLEKHLIPCATSGESKVFYYKMKGDYHRYLAEFATGSDRKDAAENSLIAYKAASDIAMNDLPPTHPIRLGLALNFSVFYYEILNSPDRACRLAKAAFDDAIAELDTLSEESYKDSTLIMQLLRDNLTLWTSDMQAEEVDPNAGDGEPKEQIQDVEDQDVS
notes: 14-3-3ε, Drosophila melanogaster; source: yeast two-hybrid fusion (pB42, S. cerevisiae EGY48)
With B2, the “percent of reporter signal lost relative to UbxIb Pro4” value in experiment [1] and in experiment [2] was no less than 59% throughout.

B3: Ribosomal protein L22 (natural protein)
chain: not shown
notes: Ribosomal protein L22 (RpL22), Drosophila melanogaster; also called RpL22; source: yeast two-hybrid fusion (pB42, S. cerevisiae EGY48)
Consider B3, for which the “percent of reporter signal lost relative to UbxIb Pro4” value in experiment [1] and in experiment [2] was no less than 59% throughout.
